Measured values published in US20130122577, “KIT INCLUDING SEQUENCE SPECIFIC BINDING PROTEIN AND METHOD AND DEVICE FOR DETERMINING NUCLEOTIDE SEQUENCE OF TARGET NUCLEIC ACID” (Samsung Electronics Co., Ltd., published 2013).

B1: target nucleic acid 1 (AATTAG 20-mer duplex) (dsDNA)
DNA 1: TTTTTTTAATTAGTTTTTTT
DNA 2: AAAAAAACTAATTAAAAAAA
B2: target nucleic acid 2 (AACTGA 20-mer duplex) (dsDNA)
DNA 1: TTTTTTTAACTGATTTTTTT
DNA 2: AAAAAAATCAGTTAAAAAAA

Assays:
[1] = target: ZF01 (two-finger zinc finger protein targeting AATTAG, YFP fusion) (Artificial Sequence); experiment: EMSA; 20 mM bis-Tris propane pH 7.0, 100 mM NaCl, 5 mM MgCl2, 20 mM ZnSO4 (so in the source), room temperature 1 h; complementary strand SEQ 14 appears printed 3'-5'; details: tags: YFP fused via (Gly2Ser)2 linker; Ni-NTA purified from E. coli BL21(DE3), pET21b-YFP-ZF (1)
Sequence of ZF01 (two-finger zinc finger protein targeting AATTAG, YFP fusion) (Artificial Sequence) (chain, as listed by the source): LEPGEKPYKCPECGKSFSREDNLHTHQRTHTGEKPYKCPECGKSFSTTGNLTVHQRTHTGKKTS
Procedure: (§1) In order to identify whether the sequence specific binding protein prepared in Example 2 specifically binds to the target nucleic acid, a gel mobility shift assay was performed.
(§2) First, a 20-mer oligonucleotide including the nucleotide sequences AATTAG or AACTGA, which the sequence specific binding protein may specifically recognize, was synthesized (SEQ ID NO. 13 to SEQ ID NO. 16). Subsequently, each of the oligonucleotides of SEQ ID NOS. 13 and 14, SEQ ID NOS. 15 and 16 was annealed to prepare a target nucleic acid. The prepared target nucleic acid and the protein prepared in Example 2 was added to a buffer solution (including 10 ml of 20 mM bis-Tris propane (pH 7.0); 100 mM NaCl; 5 mM MgCl₂; 20 mM ZnSO₄; 10% glycerol; 0.1% Nonidet P-40; 5 mM DTT; and 0.10 mg/ml BSA), followed by reaction at room temperature for about 1 hour. The reactant was subjected to non-denaturing PAGE and as a result as shown in FIG. 6 and FIG. 7, it was identified that a combined product of a target nucleic acid 1 (a polynucleotide fragment including AATTAG) or 2 (a polynucleotide fragment including AACTGA) with ZF01 or ZF02 respectively recognizing the nucleic acid 1 or 2 was shorter in mobility distance on the gel than a negative control group (target nucleic acid).

[2] = target: ZF02 (two-finger zinc finger protein targeting AACTGA, YFP fusion) (Artificial Sequence); experiment: EMSA; 20 mM bis-Tris propane pH 7.0, 100 mM NaCl, 5 mM MgCl2, 20 mM ZnSO4 (so in the source), room temperature 1 h; complementary strand SEQ 16 appears printed 3'-5'; details: tags: YFP fused via (Gly2Ser)2 linker; Ni-NTA purified from E. coli BL21(DE3), pET21b-YFP-ZF (2)
Sequence of ZF02 (two-finger zinc finger protein targeting AACTGA, YFP fusion) (Artificial Sequence) (chain, as listed by the source): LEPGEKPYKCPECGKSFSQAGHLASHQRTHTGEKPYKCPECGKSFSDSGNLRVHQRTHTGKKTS
Procedure: as §1, §2

Binder | binding result [1] | binding result [2]
B1 | binds | 
B2 |  | binds
